A word on the Kd: it is a measure of binding affinity in units of concentration.

The target in data set [1] is T1, SA2 (STAG2), full length (human, UniProt Q8N3U4 1-1231).
T1 sequence: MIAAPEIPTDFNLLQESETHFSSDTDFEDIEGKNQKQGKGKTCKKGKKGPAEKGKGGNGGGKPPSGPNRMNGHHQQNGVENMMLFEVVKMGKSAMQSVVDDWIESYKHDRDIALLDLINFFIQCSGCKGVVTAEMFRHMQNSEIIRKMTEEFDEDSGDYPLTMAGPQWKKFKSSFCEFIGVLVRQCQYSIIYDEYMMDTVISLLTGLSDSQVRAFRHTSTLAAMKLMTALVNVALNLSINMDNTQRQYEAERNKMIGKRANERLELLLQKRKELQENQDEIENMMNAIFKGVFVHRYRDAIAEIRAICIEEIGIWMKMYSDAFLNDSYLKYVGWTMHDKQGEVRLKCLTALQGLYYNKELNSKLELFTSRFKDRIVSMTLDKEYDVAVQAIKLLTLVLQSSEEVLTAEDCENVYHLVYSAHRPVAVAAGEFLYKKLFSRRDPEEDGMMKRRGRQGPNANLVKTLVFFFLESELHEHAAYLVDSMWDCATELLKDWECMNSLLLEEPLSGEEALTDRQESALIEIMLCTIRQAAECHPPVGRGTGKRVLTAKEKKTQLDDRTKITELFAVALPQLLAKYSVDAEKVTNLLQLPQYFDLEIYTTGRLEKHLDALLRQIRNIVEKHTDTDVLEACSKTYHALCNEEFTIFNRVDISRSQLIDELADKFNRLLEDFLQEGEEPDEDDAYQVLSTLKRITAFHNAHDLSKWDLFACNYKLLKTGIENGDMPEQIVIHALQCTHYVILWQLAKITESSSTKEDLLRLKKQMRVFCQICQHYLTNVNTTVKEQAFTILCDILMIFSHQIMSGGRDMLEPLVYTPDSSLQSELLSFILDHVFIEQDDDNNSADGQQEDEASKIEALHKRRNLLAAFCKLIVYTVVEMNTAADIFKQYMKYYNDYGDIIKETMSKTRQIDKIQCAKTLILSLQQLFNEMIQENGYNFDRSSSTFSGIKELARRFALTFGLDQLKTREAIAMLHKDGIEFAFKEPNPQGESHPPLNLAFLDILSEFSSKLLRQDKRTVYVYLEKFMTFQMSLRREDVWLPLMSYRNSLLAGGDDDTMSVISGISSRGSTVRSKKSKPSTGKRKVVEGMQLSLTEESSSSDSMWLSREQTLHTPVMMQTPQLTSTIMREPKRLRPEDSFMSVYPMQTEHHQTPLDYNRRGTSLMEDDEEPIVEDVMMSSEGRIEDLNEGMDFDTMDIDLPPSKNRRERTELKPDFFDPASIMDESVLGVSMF
The data set can be described thus: fluorescence anisotropy; no detectable binding (ND); Anisotropy: 20 mM Hepes pH 7.5, 0.1 mM MgCl2, 0.5 mM DTT, 100 mM KCl, 1 nM DNA; AFM: 20 mM Hepes pH 7.5, 100 mM KCl, 0.1 mM MgCl2, room temperature, 20 min. Conditions: protein: recombinant; tags: 6xHis; label: 5' Alexa 488 on strand 1; blunt. (Polarisation of emitted light reports the rotation of a fluorescent probe.)

The target of a further data set is T2, SA1 (STAG1), full length (UniProt Q8WVM7 1-1258).
T2 sequence: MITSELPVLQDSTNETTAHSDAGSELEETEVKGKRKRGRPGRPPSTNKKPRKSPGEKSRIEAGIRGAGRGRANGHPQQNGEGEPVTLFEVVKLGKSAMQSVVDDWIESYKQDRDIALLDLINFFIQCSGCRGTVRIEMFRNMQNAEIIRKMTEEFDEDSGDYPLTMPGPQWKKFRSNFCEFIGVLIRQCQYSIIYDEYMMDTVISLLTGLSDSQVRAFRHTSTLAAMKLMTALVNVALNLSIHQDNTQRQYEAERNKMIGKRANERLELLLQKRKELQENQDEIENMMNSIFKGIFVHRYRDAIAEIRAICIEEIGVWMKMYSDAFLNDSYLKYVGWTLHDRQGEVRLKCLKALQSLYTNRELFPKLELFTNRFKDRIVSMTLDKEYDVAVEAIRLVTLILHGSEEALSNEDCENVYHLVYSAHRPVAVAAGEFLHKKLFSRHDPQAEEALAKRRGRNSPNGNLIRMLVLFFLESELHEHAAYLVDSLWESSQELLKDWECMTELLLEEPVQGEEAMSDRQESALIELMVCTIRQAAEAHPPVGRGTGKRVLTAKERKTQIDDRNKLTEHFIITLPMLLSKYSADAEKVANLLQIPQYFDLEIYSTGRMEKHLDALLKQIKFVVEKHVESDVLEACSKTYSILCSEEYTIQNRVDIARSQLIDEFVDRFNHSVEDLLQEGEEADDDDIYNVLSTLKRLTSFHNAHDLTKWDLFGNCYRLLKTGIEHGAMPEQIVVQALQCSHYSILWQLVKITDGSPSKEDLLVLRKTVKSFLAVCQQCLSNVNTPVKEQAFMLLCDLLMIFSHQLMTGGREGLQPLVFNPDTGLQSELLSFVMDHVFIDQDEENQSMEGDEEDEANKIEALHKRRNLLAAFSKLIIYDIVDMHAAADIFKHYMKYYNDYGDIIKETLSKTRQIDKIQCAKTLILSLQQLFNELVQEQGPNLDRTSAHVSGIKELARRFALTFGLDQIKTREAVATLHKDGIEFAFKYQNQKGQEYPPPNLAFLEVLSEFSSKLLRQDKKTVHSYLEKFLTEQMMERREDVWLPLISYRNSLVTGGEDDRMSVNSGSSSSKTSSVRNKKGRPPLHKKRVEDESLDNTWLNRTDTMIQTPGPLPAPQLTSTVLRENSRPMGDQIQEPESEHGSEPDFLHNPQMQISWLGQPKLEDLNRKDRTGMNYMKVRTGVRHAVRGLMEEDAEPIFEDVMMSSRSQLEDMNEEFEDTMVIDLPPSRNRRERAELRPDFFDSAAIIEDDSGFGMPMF
The data set can be described thus: fluorescence anisotropy; Anisotropy: 20 mM Hepes pH 7.5, 0.1 mM MgCl2, 0.5 mM DTT, 100 mM KCl, 1 nM DNA; AFM: 20 mM Hepes pH 7.5, 100 mM KCl, 0.1 mM MgCl2, room temperature, 20 min. The following applies: protein: recombinant; label: Alexa 488.

Another data set deals with T3, SA2 1-1051 (human, UniProt Q8N3U4 1-1051).
T3 sequence: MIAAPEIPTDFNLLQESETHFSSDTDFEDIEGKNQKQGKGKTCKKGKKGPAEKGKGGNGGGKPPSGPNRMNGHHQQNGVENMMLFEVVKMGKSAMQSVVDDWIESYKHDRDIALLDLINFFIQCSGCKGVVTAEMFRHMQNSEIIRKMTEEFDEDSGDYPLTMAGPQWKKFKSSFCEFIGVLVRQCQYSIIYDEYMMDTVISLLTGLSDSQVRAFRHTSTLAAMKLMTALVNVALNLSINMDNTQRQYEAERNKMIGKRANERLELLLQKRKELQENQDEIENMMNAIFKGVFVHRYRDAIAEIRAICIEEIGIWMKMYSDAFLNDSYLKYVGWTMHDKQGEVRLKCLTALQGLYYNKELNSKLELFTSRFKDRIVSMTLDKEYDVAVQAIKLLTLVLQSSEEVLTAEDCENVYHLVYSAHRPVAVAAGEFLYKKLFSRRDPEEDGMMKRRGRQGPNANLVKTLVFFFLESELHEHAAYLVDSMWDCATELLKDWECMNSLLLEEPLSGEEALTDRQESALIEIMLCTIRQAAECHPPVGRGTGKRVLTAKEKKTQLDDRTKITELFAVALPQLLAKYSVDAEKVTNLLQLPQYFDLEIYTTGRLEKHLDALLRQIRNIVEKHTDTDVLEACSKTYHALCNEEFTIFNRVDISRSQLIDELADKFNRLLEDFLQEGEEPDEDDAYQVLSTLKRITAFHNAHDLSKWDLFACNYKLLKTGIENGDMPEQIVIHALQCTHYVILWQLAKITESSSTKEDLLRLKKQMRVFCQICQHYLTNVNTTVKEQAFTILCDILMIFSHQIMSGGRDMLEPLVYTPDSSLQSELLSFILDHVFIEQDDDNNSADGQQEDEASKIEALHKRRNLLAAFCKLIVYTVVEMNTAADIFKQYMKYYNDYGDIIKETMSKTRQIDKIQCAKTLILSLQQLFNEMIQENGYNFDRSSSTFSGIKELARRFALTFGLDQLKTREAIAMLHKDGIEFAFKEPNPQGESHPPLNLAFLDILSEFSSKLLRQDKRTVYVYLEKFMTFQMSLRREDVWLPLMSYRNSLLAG
The data set is described as above. The following applies: protein: recombinant; tags: 6xHis; label: Alexa 488.

The target of data set [2] is T1, SA2 (STAG2), full length. The data set is described as above. The following applies: protein: recombinant; tags: 6xHis; label: Alexa 488.

B1: ds25 (Alexa ss25 + ss-25-com) (dsDNA)
DNA 1: TGTCGCATAGTGTAGTCGGTCTTGT
DNA 2: ACAAGACCGACTACACTATGCGACA
As for B1, the binding result with SA2 (STAG2), full length [1] is on record as “no binding”.

B2: ss66 (Alexa ss66) (ssDNA)
DNA: CTGGATCCGTACAGTGTAAGGGTGAGTGGTTGGGTGTGTGGGTGTTGATGTAGAACAAGAATTCGA
For the molecule B2, the Kd with SA1 (STAG1), full length amounted to 36.5 ± 0.2 nM; with SA2 1-1051, 28 nM; with SA2 (STAG2), full length [2], 41 ± 5.3 nM.

For the origin of these results see publication PMC5777247, “Cohesin SA2 is a sequence-independent DNA-binding protein that recognizes DNA replication and repair intermediates”.
